Data taken from the nanobody polyreactivity screen of Harvey et al. (2022).

Assay: yeast display, Sf9 membrane polyspecificity reagent, FACS + sequencing; frameworks hold sequencing errors
Outline: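 Using colony PCR, genes from sorted yeast display clones were amplified, then sequenced on MiSeq at 2 × 250 and filtered by CDR length. The clones had been stained with 10% biotinylated, detergent-solubilized Sf9 membrane reagent for 1 hour at 4 °C and sorted by FACS into low and high (top ~1%) gates on anti-HA and streptavidin fluorescence. Polyreactivity labels come from the gate of origin.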

| Sequence | polyreactivity (PSR sort gate) |
| --- | --- |
| QVQLVESGGGLVQAGGSLRLSCAASGSTFTNYAMGWYRQAPGKERELVAAITSGGSTYYADSVKGRFTISRDNAKNTVYLQMNSLKPEDTAVYYCNAVYFSEYDSWGQGTQVTVSS | low polyreactivity |
| QVQLVESGGGLVQAGGSLRLSCAASGRTFDDYAMGRYRQAPGKERELVAVITDNGGGTNYADSVKGRFTISRDNAKNTVYLQMNSLKPEDTAVYYCNAASDDFYPGRRTYGRDYWGQGTQVTVSS | low polyreactivity |
| QVHLVDSGGGLVQAGGRLRLSCAASASIFLIYAMGWYRQAPGQERELVAAINYSGVRTYYADSVKGRFTISRDNAKNTVYLQMNSLKPEDSAVYYCAVSRGGAYYQYGYWGQGTQVSVSS | high polyreactivity |
| QVQLVESGGGLVQAGGSLRLSCAASGFILGGYAMGWYRQAPGKERELVAAISWSSGSTYYADSVKGRFTISRDNAKNTVYLQMNSLKPEDTAVYYCAAVGAYDYWGQGTQVSVSS | low polyreactivity |
| QVQLVESGGGLVQAGGSLRLSCAASGRIIGKYDMGWYRQAPGTERELVAAIRYNGGRTYYADSVKGRFTISRDNAKNTVYLQMNRLKPEDNAVYYCATRTYRVDPEFGYWGQGTEVTVSS | high polyreactivity |
| QVQLVESGGGLVQAGGSLRLSCAASGRIFDTYVMGWYRQAPGKERELVAAISGSGGSTYYADSVKGRFTISRDIAKNTVYLQMNSLKPEDTAVYYCAAARRYYAYRYDYWGQGTQVSVSS | high polyreactivity |
| QVQLVESGGGLVQAGGSLRLSCAASGTFYGNTMGWYRRPPGKERELVAVISIDGSTNYADSVKGRFTISRDNAKNTVYLQMNSLKPEDTAVYYCAADYWRQFRDYDYWGQGTQVTVSS | low polyreactivity |
| QVQLVESGGGLVQAGGSLRLSCAASGSILDYYVMGWYRQAPGKERELVAAIRGGGSTYYADSVKGRFTISRDNEKNTVYLQMNRMKREDTAVNYCAAAVYGSYTTYGYFEHYFWGQGTQVTVSS | low polyreactivity |
| QVQLVESGGGLVQAGGSLRLSCADSGSIFDFNALGWYRQAPRKERELVAAITWSGGSTYYSDSVKGRFTISRDYAKNTVYLQMNSLKPEDTAVYYCAADSLYDDFYYWGQGTQVTVSS | low polyreactivity |
| QVQLEESGGCLVQAGGSLRLSCAASGSTFVYNVMGWYRQAPGKERELVAAITSGVRTYYADSVKGRFTISRDNAKNTVYLQMNSLKPEDTAGYYCATGWRYAKYYYWGQGTQVTVSS | high polyreactivity |
| QVQLVESGGGLVQAGRSLRLSCAASGSTLTRNAMGWYRQAPGKERELVAAITQRGGSTYYADSVKGRFTISRDNAKNTVYLQMNSLKPEDTAVYYCAAAYRGYARHDYWGQGTQVNVSS | high polyreactivity |
| QVQLVESGGGLVQAGGSLRLSCAASGIIFRRYAMGWYRQAPGKERELVAAITGSGGSTYYADSVKGRFTISRDNAKNTVYLQMNSLKPEDTAVYYCAAKGYPSRYSYGWYNYWGQGTQVTVSS | high polyreactivity |
| QVQLVESGGGLVQAGGSLRLSCAASGSTFGYYTMGWYREAPGKERELVAAISWSGGSTYYADSVKGRFTISRDNAKNTVYLQMNSLKPEDTAVYYCAALGYTYKYYSYYWGQGTQVTVSS | high polyreactivity |
| QVQLVESGGGLVQAGGSLRLSCAASGFTFQYYAKGWYRQAPGKERELVAAISSSGGSTFYADSVKGRFTSSRDNAKNTVYLQMNSLKPEDTAVYYCATYTSPGYYYWGQGTQVTVSS | high polyreactivity |
| QVQLVESGGGLFQAGGSLRISCAASGRTFSYYAMGWYRQAPVKERELVAAISWSGVITYYADSVKGRFTISRDNAKNTVYLQMNSMKPEDTAVYYCASRPYWSEFDYDYWGQGTQVTLSS | low polyreactivity |
| QVQLVESGGGLVQAGGSLRLSCAASGSIVRSYAMGWYRQAPGKERELVAAITGGANTYYADSVKGRFTISRDNAKNTVYLQMNSLKPEDTAVYYCAASPIQTGSIFSTFYSYRSYYWGQGTQVTVSS | high polyreactivity |
| HVQLVESGGGLVQAGGSLRLSCAASGRTFTYNTMGVYRKEPGKERELVAAISSSGGSTYYADSVKGRFTISRDNAKNTVYLQMNSLKPEDTAVYYCAKRYFSSSRYYYWGQGTQVTVSS | high polyreactivity |
| QVQLVESGGGLVQAGGSLRLSCAASGSIFEAYVMGWYRQAPGKQRELVAAITTGGGSTYYADSVKWRFTISRDNAKNTVYLQMNSLKPEDTAVYYCGKDYWFGYEYWGQGTQVTVSS | low polyreactivity |
| QVQLVESGGGLVQAGGSLRLSCAASGFIFSNYAMGWYRQAPGKERELVAAISWSGTRTYYADSVKGRFTISRDNAKNTVYLQMNSLKPEDTAVYYCAAYGVYLYDYWGQGTQVTVSS | low polyreactivity |
| QVQLVESGGGLVQAGGSLRISCASSGNTFTSYAMGWYRQAPGKASELVASIDSDDSTNYADSVKGRFTISRDNAKNTDYFQMNSLKPEETAVFYCAASDNDDWYYVYHYDYWVQGTQVTVSS | low polyreactivity |
| QVQLEESGGGLVQAGGSLRLSCAASGFTFSYYAMGWYRQATGKERELVAAITSSAGSTYYADSVKGRFTISRDYAKNSFYLQMTSLKPEDTEVYYCYAVYSKLNGGYDYWGQGTQVTVSS | low polyreactivity |
| QVQLVESWGGLVQSGGSLRLSCAASGFTFGHNAMGWYIQAPGKERELVAAIDTSGGSTYYADSVKGRFTISRDNEKNTVYLKMNSLKPEDTAVYYCAAFSASYGGYDYWGQGTQVTVSS | high polyreactivity |

| Sequence | polyreactivity (PSR sort gate) |
| --- | --- |
| QVQLVESGGGLVQAGGSIRISCEASGITFGRNPMGCDRQAPGKERELVDAIDSGGNTYADSVKGRFTISRDNAKNTFYLQMNRLIPEDTAVYYCAVDGGEFSSYGYWGQGTQVTVSS | low polyreactivity |
| QVQLEESGGGLVQAGGSLRLSCAASGYTFGTYTMGWYRQAPGKERELVAGIDSGGTTNYADSVKGRFTISRDNAKNTVYLQMNSLKPEDTAVYYCTAYHLLIFDYYLGLYYYRGNYYWGQGTQVTVSS | low polyreactivity |
| QVQLVESGGGLVQAGGSLRLSCAASGFTFARNAMGWYRQAPGKERELVAVISRGGSTNYADSVKGRFTISRDNAKNTVSLQLHSLKPEDTAVYYCATRSSRRSYYLGEFNYWGQGTQVTVSS | high polyreactivity |
| QVQLVESGGGLVQAGGSLRLSCAASGRIFGRYAMGWYRQAPGKERELVAAITSSGGNTYYADSVKGRFTISRDNAKNTVYLQMNSLKPEDTAVYYCNALSARSRLQSDYWGQGTQVTVSS | high polyreactivity |
| QVQLVESGGGLVQAGGSLRLSCAASGIIFKGYDMGWYRQAPGKERELVAAISSGSTNYADSVKGRFTISRDNAKNTVYLQMNSLKPEDTAVYYCAVRTYRYQSWGNYYLEYDYWGQGTQVTVSS | low polyreactivity |
| QVQLVESGGGLVQEGGSLRLSCAASGFTFAYYAMGWYRQAPGKERELVASISYNGGITNYADSVKGRFTISRYNAKNTVYLQMNSLKPEDTAVYYCAAGVFFFTFDYWGQGTQVTVSS | low polyreactivity |
| QVQLVESGGGLVQAGGSLRLSCAASGLTFGHYAMGWYRPAPGKERELVAAITSGGRTYYADSVKGRFTISRDNAKYTVYLQMNSLKPEDTAVYYCATRGPRYRYYYWGQGTQVTVSS | high polyreactivity |
| QVQLVESGGGLVQAGGSLRLSCAASGFIFYRYTMGCYRQAPGKERELVAGISSRGTRTYYADSVKGRFTISRDNAKNTVYLQMNSLKPEDTAVYYCAKVDGSKRYNYWGQGTQVTVSS | high polyreactivity |
| QVQLVESGGGLVQAGGSLRLSCAASGLIFWINAMGWYRQAPWKERDLVAAITNSGGDTYYADSVKGRFTISRDNAKKTVYLQMNSLKTEDTAVYYCNADGTKWVRETYDYWGQGTQVTVSS | low polyreactivity |
| QVQLVESGGGLVQAGGSLRLSCAASGFTSDTNAMGWYRQAAGKERELVAAIDSGGGSTYYADSVKGRFTISRENSKNTVYFQMNSLKPEDTAVYYCNAEQTPFVASLRVGEYGYWGQGTQVTVSS | low polyreactivity |
| QVQLEESGGGLVQAGGSLRLSCPASGSIFSWNAMGWYRQSPGKERELVATITWNGGRTYYADSVKGRFTISRDNAKNTVYLQMKSLKPEDTAVYYCAARYYVYWTYPNRVLSYYYWGQRTQVTVSS | high polyreactivity |
| QVQLVESGGGLVQAGGSLRLSCAASGSTFYPYAMGWYRQAPGKERELVAAITSGGRTYYADSVKGRFTISRDNAKNTVYLQMNSLKPEDTAVYYCAALQYRRLRDYRHDYWGQGTQVTVSS | high polyreactivity |
| QVQLEESGGGLVQAGGSLRLSCAASGFTIRLYARGWYRQAPGKVRELVAAITSGGSTYADSVKGRFTISRDNAKNTVYLQMNSLKPEDTAVNYCAAVSRYWAKYEYWGQGTQVTVSS | high polyreactivity |
| QVQLVESGGGLVQAGGSLRLSCAASGSILTAYAMGWYRQAPGKERELVAASNFSGDNTYYADSEKGRFTISRDNAKNTVYLQMNSLKPEDTAVYYCNADGRYAYVWYDYWGQGTQVTVSS | low polyreactivity |
| QVQLVDSGGGLVQAGGSLRLSCAASGFIFRRYAMGWYRQAPGKERDLVAVIRSSGGSTYYADSVKGRFTISRDNAKNTVYLQMNSLKPEDTAVYYCAARSILGYRSYGYWGEGTQVTVSS | high polyreactivity |
| QVQLVESGGGLVQAGGSLRLSCAASGSTFGGNAMGWYRPAPGKERELVAGITTGGTTNYADSVKGRFTISRDNAKNTVYLQMISLIPEDTAVYYCAAGPSSSLTLYDYWGQGTQVTVSS | low polyreactivity |
| QVQLVESGGGLVQAGGSLRLSCAASGFIFFTNAMGWYRQAPGKERELVAAITDDGSTYYADSVKGRFTISRDNAKNTVYLQMNSLKPEDTAVYYCNVVLQDPSYSWFWYDYDYWGQGTQVTVSS | high polyreactivity |
| QVQLVESGGGLVQAGGSLRLSCAASGRIFGSNPMGWYRQAPGKERELVAAISSGGSTSYADSVKGRFTISRDNAKKTVYLQMNSLKPEDTAVYYCAADRFAFYGRYRGPYYYWGQGTQVTVSS | high polyreactivity |
| QVQLVESGGGLVQAGGSLRLSCAASGSILLVYAMGWYRQAPGKERELVATITWTDGSTYYADSVKGRFTISRDNAKNTVYLQMNSLKPEDTAVYYCNAGASVNSPLVAEYYYWGQGTQVTVSS | low polyreactivity |
| QVQLVESGGGLVQAGGSLRFSCAASGLIFRGYTMGWYRQAPGKEREFVAAITRRGTSTYYADSVKGRFTISRDNAKNTVYLQINRLKPEDTAVYYCAARSVSGPRGYPYDYWGQGTQVTVSS | high polyreactivity |
| QVQLVESGGGLVQAGGSLRLSCAASGSIFEDYAMGWYRQAPGKERELVAGINWSGGSTYYADSVKGRFTISRDNAKNTVYLQMNSLKPEDTAVYYCAAKAFYYYYTEHDYWGQGTQVTVSS | high polyreactivity |
